Experimental findings from EP4628505A1 (Genor Biopharma Co., Ltd., dated 2025) are described below.

Positions count from the first letter of the chain named.

For one assay, the target named is T1, recombinant human CTLA-4 (human, UniProt P16410 36-161, limits assumed).
T1 construct: also called CTLA4 antigen
T1 sequence (looked up): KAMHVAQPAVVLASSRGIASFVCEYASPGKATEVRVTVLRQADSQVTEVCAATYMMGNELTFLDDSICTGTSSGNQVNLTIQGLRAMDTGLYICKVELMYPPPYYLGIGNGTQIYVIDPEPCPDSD
The experiment in a line: Octet (BLI), 1:1 binding model.

The target in assay [1] is T2, mouse CTLA4 (Acro Biosystem, Catlog #CT4-M52H5) (mouse, UniProt P09793 36-161).
T2 construct: Bought protein
Briefly: ELISA, plate coated with 1 ug/ml mouse CTLA4.

B1: GBD008-S019 (antibody, V domains shown)
VH: QVQLVESGGGLVQPGGSLTLSCAASGFTFSSYTMAWYRQAPGKEREVVAGISRSGGTTNYGDSVKGRFTISRDNAKNTVYLQMNSLKPEDTAVYYCRAVSDYWGQGTQVTVSS
notes: Heavy chain-only antibody (VHH-Fc), no light chain; also called GBD008-5019
For the molecule B1, in the assay with recombinant human CTLA-4, the Kd was determined as 0.165 nM, the koff is 4.35e-05 s⁻¹ and the kon came to 263000 M⁻¹ s⁻¹. Moreover, in assay [1], the binding result is recorded as “no binding”.

B2: GBD008-hS019-4 (antibody, V domains shown)
VH: B1 VH with Q1E, V5L, T19R, A75S, V79L, K87R, P88A, Q108L
notes: Humanized heavy chain-only antibody (VHH-Fc), no light chain
With B2, in the assay with recombinant human CTLA-4, the Kd came out at 0.236 nM, the koff came out at 7.13e-05 s⁻¹ and the kon is 302000 M⁻¹ s⁻¹. Also, the binding result in assay [1] was “no binding”.

B3: GBD008-hS005-3 (antibody, V domains shown)
VH: EVQLVESGGGLVQPGGSLRLSCAASGRTASSNAMAWVRQAPGKEREFVSAISATGGLTAYADSVKGRFTISRDNSKNTLYLQMNSLRAEDTAVYYCAVGRERWYLRHTENEYDYWGQGTLVTVSS
notes: as for B2
As for B3, in the assay with recombinant human CTLA-4, the dissociation constant Kd stood at 0.524 nM, the dissociation rate constant (koff) was found to be 9.91e-05 s⁻¹ and the kon amounted to 189000 M⁻¹ s⁻¹. The binding result in assay [1] was “no binding”.

B4: GBD008-hS005-3-2 (antibody, V domains shown)
VH: B3 VH with V37F
notes: as for B2
As for B4, in the assay with recombinant human CTLA-4, the Kd was 0.53 nM, the off-rate (koff) amounted to 0.000114 s⁻¹ and the on-rate constant (kon) amounted to 214000 M⁻¹ s⁻¹. Further, the binding result in assay [1] was “no binding”.

B5: GBD008-S004 (antibody, V domains shown)
VH: EVQLVESGGGLVQAGGSLRLSCLASGRTFSSYDMGWFRQAPGKEREFVAAISWGGVNTYYADSVKGRFTISRDNAKNTVYLQMNSLKPEDTAVYYCARGSAPYSSSRSSAQETYAQWGQGTQVTVSS
notes: Heavy chain-only antibody (VHH-Fc), no light chain
As to B5, in the assay with recombinant human CTLA-4, the dissociation constant (Kd) is 28.9 nM, the koff is 0.00501 s⁻¹ and the kon is 173000 M⁻¹ s⁻¹. For the same molecule, the binding result in assay [1] is “no binding”.

B6: GBD008-hS004-5 (antibody, V domains shown)
VH: B5 VH with A14P, L23A, V79L, K87R, P88A, Q122L
notes: as for B2
Consider B6, for which, in the assay with recombinant human CTLA-4, the dissociation constant Kd is 27.9 nM, the dissociation rate constant (koff) came out at 0.00671 s⁻¹ and the kon amounted to 241000 M⁻¹ s⁻¹. The binding result in assay [1] was “no binding”.
